# In the nanobody polyreactivity screen of Harvey et al. (2022):
# Assay: yeast display, Sf9 membrane polyspecificity reagent, FACS + sequencing; frameworks hold sequencing errors
# Method in brief: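 Galactose-induced (36–48 hours) yeast carrying a synthetic nanobody display library were exposed to 10% biotinylated, detergent-solubilized Sf9 membrane reagent at 4 °C for 1 hour. FACS followed streptavidin microbead enrichment, using low and high (top ~1%) gates for expression (anti-HA) and reagent binding (streptavidin). Colony PCR, MiSeq 2 × 250 sequencing and CDR-length filtering followed. Labels for polyreactivity reflect the gate of origin.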
row,Sequence,polyreactivity (PSR sort gate)
1,QVQLVESGGGLVQAGGSLRLSCAASGSIFNKYAMGWYRQAPGKERELVAAISVSGTRTYYADSVKGRFTISRDTAKNTVYLQMNSLKPEDTAVYYCATKFFRTAYEYWGQGTQVTVSS,high polyreactivity
2,QVQLVESGGGLVQAGGSLRLSCAASGSIFNLYAMGWYRQAPGKERELVAGIRWSGGRTYYADSVKGRFTISRDNAKYTVYLQMNSLKPEDTAVYYCAAEYRSWRYTGYSYYYWGQGTQVTVSS,high polyreactivity
3,QVQLVESGGGLVQAGGSLRLSCAASGSIFNNNAMGWYRQAPGKERELVADITASGGNTNYADSVKGRFTISRDNAKNTVYLQMNSLKPEDTAVYYCNAGGFYGTLFFPLDIYYVGYDYWGQGTQVTVSS,low polyreactivity
4,QVQLVESGGGLVQAGGSLRLSCAASGSIFNPNAMGWYRQAPGKERELVAAISYSDATTYYADSVKGRFTISRDNAKNTVYLQMNSLKPEDTAVYYCAAEPAAGDYDYWGQGTQVTVSS,high polyreactivity
5,QVQLVESGGGLVQAGGSLRLSCAASGSIFNQYPMGWYRQAPGKERELVAAISSGSTYYADSVKGRFIISRDNAKITVYLQMNSMKAEDTAVNNCAKDRHSPYWAMDYWGQGTQVTVSS,high polyreactivity
6,QVQLVESGGGLVQAGGSLRLSCAASGSIFNRYAMGLYRQAPVKERELVAAISSTGSTYYADSVKGRFTISRDNAKNTVYLQMNSLKPEDTAVYYCATDDPLSQINEQGMDYWGQGTQVTVSS,low polyreactivity
7,QVQLVESGGGLVQAGGSLRLSCAASGSIFNRYAMGWYRPAPGKEREFVARISKRGGGTYYADSVKGRFTISRDNAKNTVYLQMNSLKPEDTAVYYCAARAYDHTGHVGFDYWGQGTQVTVSS,high polyreactivity
8,QVQLVESGGGLVQAGGSLRLSCAASGSIFNRYTMGWYRQAPGKERELVAAISKRGGSTYYADSVKGRFTISRDNAKNTVYLQMNSLKPEDSAVYYCAAAAYHSGNGGGYWGQGTQVSVSS,high polyreactivity
9,QVQLVESGGGLVQAGGSLRLSCAASGSIFNSNGMGWYRPAPGKERELVAAITGGGSTNYADSVKGRFTISRDNAKNTVYLQMNSLKPEDTAVYYCAARPLRTDWAYYYWGQGTQVTVSS,low polyreactivity
10,QVQLVESGGGLVQAGGSLRLSCAASGSIFNSYAMGWYRQAPGKERELVAAIRWSGGRTYYADSVKGRFTISRDNAKNTVYLQMNSLKPEDTAVYYCNVVSPGRVNYWGQGTQVTVSS,high polyreactivity
11,QVQLVESGGGLVQAGGSLRLSCAASGSIFNSYAMGWYRQAPGKERELVAAISRSGGRTYYADSVKGRFTISRDNAKNTVYLQMNSLKPEDTAVYYCAADAGSYLSYKAWARKMYYLGQGTQVTVSS,high polyreactivity
12,QVQLVESGGGLVQAGGSLRLSCAASGSIFNVYAMGWYRQAPGKERELVAAISSSGARTYYADSVKGRFTISRDNAKNTVYLQMNSLKPEDTAVYYCAARSILIRSGGGYPSVWRNYWGQGTQVTVSS,high polyreactivity
13,QVQLVESGGGLVQAGGSLRLSCAASGSIFNVYVMGWYRQAPGKERELVAAITWSGGTTYYADSVKGRFTISRDNAKNTVYLQMNSLKPEDTAVYYCAAEVWYFYDGYDYWGQGTQVTVSS,high polyreactivity
14,QVQLVESGGGLVQAGGSLRLSCAASGSIFNWYAMGWYRQAPGNERELVADISWSDGDTYYADSVKGRFSISRDNAKNTDYLQMNSLKPEDTAVYYSAAASNLYYPYYVLGDPYDYWGQGTQVTVSS,low polyreactivity
15,QVQLVESGGGLVQAGGSLRLSCAASGSIFNYNAMGWYRQAPGKERELVATINKRAGRTYYADSVKGRFTISRDNAKNTVYLQMNSLKPEDTAVYYCAALHSGRVQNFDYWGQGTQVTVSS,high polyreactivity
16,QVQLVESGGGLVQAGGSLRLSCAASGSIFNYNMGLYRQAPGKERELVAAVSTNYADSVKGRFTISRDNAKNTVYLQMNSLKPEDYAVYYCGVTPEKSGDEYDNWGQGTQVTVSS,low polyreactivity
17,QVQLVESGGGLVQAGGSLRLSCAASGSIFNYYAMGWYRQAPGKEREFVAAISWRGGSTYYADSVKGRFTISRDNAKNTVYLQMNRLKPEDTAVYYCNARVYGVYRRRVNYWGQGTQVTVSS,high polyreactivity
18,QVQLVESGGGLVQAGGSLRLSCAASGSIFNYYAMGWYRQAPGKERELVAGITTSGGSTYYADSVKGRFTISRDNAKNTVYLQMISLKPEDTAVYYCAAYDYISSTYFLDDYWGQGTQVSVSS,low polyreactivity
19,QVQLVESGGGLVQAGGSLRLSCAASGSIFPDYAMGWYRQAPGKERELVAAITWRDDSTYYADSVKGRFTISRDNAKNTVYLQMNSLKPEDTAVYYCNASALDPLYAKDDYWGQGTQVTVSS,low polyreactivity
20,QVQLVESGGGLVQAGGSLRLSCAASGSIFPENAMGWYRQAPGKERELVAAINRGGSTYYADSVKGRFTISRDNAKNTVYLQMNSLKPVDTAVYYCAAEYSGWGYIFNYWGQGTQVTVSS,low polyreactivity
21,QVQLVESGGGLVQAGGSLRLSCAASGSIFPGNAMRWYRQAPGKERELVATITWSGGSTYYADSVKGRFTISRDNAKNTVYLQINSLKPEDTAVYYCNADSNWYYQWNYYGLYDYWGQGTQVTVSS,low polyreactivity
22,QVQLVESGGGLVQAGGSLRLSCAASGSIFPGYAMGWYRQAPGKERELDATITWSGGSTYYADSVKGRFTISRDTAKNTVYLQMNSLKPEDTAVYYCNADSNWYYQWNYYGLYDYWGQGTQVTVSS,low polyreactivity

row,Sequence,polyreactivity (PSR sort gate)
1,QVQLVESGGGLVQAGGSLRLSCAASGSIFPGYAMGWYRQAPGKERELVAGITWSDARTYYADSVKGRFTISRDNAKNTVYLQMNCLKPEDTAVYYCAADYYYYELDYWGKGTQVTVSS,low polyreactivity
2,QVQLVESGGGLVQAGGSLRLSCAASGSIFPGYAMGWYRQAPGKERELVATITYSDGSTYYADSVKGRFTISRDNAKNTVSLQMNSLKPEDTAVYYCNAASRGAGTSIWSWYDHWGQGTQVTVSS,low polyreactivity
3,QVQLVESGGGLVQAGGSLRLSCAASGSIFPGYTMGWYRQAPGKERELVAAITSSGGSTYYADSVKGRFTISRDNAKNTVYLQMNSLKPEDTAVYYCAADTTNYFDPFDYWGQGTQVTVSS,low polyreactivity
4,QVQLVESGGGLVQAGGSLRLSCAASGSIFPHNTMGWYRQAPGKERELVAAITRDGTSTYYADSVKGRFTISRDNAKNTVYLQMNSLKPEDTAVYYCAARRARSFYVTYYGVGFNYWGQGTQVTVSS,low polyreactivity
5,QVQLVESGGGLVQAGGSLRLSCAASGSIFPHYAMGWYRQAHGKERELVAAMSYSGGRTYYADSVKGRFTISRDNAKNTVYLQMNSLKPEDTAVYYCAKPERVLYHGDYWGQGTQVTVSS,low polyreactivity
6,QVQLVESGGGLVQAGGSLRLSCAASGSIFPHYAMGWYRQAPGKERELVAAISRGGSTNYADSVKGRFTISRDNAKNTVYLQMNSLKPEDTAVYYCAAQGNRYANDYWGQGTQVTVSS,high polyreactivity
7,QVQLVESGGGLVQAGGSLRLSCAASGSIFPINAMGWYRQAPGKERELVAVITSGGGGTYYADSVKGRFTISRDNAKNTVYLQMNSLKPEDSAVYYCAKRLSRKWQKFGYWGQGSQVTVSS,low polyreactivity
8,QVQLVESGGGLVQAGGSLRLSCAASGSIFPKYAMGWYRQAPGKERELVAAITSSGGRTYYADSVKGRFSISRDNAKNTVYLQMNSLKPEDTAVYYCAARYRREAAYGFDYWGQGTQVTVSS,high polyreactivity
9,QVQLVESGGGLVQAGGSLRLSCAASGSIFPKYAMGWYRQAPGKERELVATISYRGGRTYYADSVKGRFTISRDNAKNTVYLQMNSLKPEDTAVYYCAGADYGSYPTYGYFEYYYWGQGTQVTVSS,low polyreactivity
10,QVQLVESGGGLVQAGGSLRLSCAASGSIFPLSAMGWYRQAPGKERELVAAITWRGGSTYYADSVKGRFTISRDNAKNTVYLQMNSLKPEDTAVYYCNRDLVPRFDYWGQGTQVTVSS,low polyreactivity
11,QVQLVESGGGLVQAGGSLRLSCAASGSIFPLYGMGWYRQAPGKERELVGAISIGGRTNYADSVKGRFTISRDNAKNTVYLQMNSLKPEDTAVYYCNAVSKFVYRNRILWYDYWGQGTQVTVSS,high polyreactivity
12,QVQLVESGGGLVQAGGSLRLSCAASGSIFPPYAMGWYRQAPGKERELVAAIDWGGSSTYYADSVKGRFTISRDNAKNTVYLQMNSLKPEDTAVYYCAAEVVHGYYLYEYWGQGTQVTVSS,high polyreactivity
13,QVQLVESGGGLVQAGGSLRLSCAASGSIFPRNAMGWYRQAPGKERELVARINSGGTTKYADSVKGRFTISRDNAKNTVYLQMNSLKPEDTAVYYCNADTYILDPLRKSYGYDYWGQGTQVTVSS,low polyreactivity
14,QVQLVESGGGLVQAGGSLRLSCAASGSIFPRYAMGWYRQAPGKERELVAAITGSGSSTYYADSVKGRFTISRDNAKNTVYLQMNSLKPEDTAVYYCAARKARPPFPHPFDYYWGQGTQVTVSS,low polyreactivity
15,QVQLVESGGGLVQAGGSLRLSCAASGSIFPSYGMGWYRQAPGKERELVARITSGGGTNYADSVKGRFTISRDNAKNTVYLQMNSLKPEDTAVYYFNKAFRGSQGHRGHYRYGYWGQGTQVTVSS,high polyreactivity
16,QVQLVESGGGLVQAGGSLRLSCAASGSIFPTNAMGWYRQAPGKERELVAAISSRDGSTYYADSVKGRFTISRDNAKNTVYLQMNSLKPEDTAVYYCNTDHDPIYFYITRHDSWGQGTQVTVSS,low polyreactivity
17,QVQLVESGGGLVQAGGSLRLSCAASGSIFPTYAMGWYRQAPGKEWELVAAIRGDGSTNYADSVKGRFTISRDNAKNTVYLQMNSLKPEDTAVSYCAAVSSEYVFRYGGYWGQGTQVTVSS,low polyreactivity
18,QVQLVESGGGLVQAGGSLRLSCAASGSIFPVNAMGLYRQAPGKERELVAAINTSSGSTYYADSVKGRFTISRDNAKNTVYLQMNSLKPEDTAVYYCAAVYVASGYRYGYWGQGTQVTVSS,high polyreactivity
19,QVQLVESGGGLVQAGGSLRLSCAASGSIFPVNVMGWYRQEPGKERELVARITSGGSTIYADSVKGRFTISRDNAKNTVYLQMNSLKPEDTAVYYCAARQYHWYLPSYWYRYDYWGQGTQVTVSS,high polyreactivity
20,QVQLVESGGGLVQAGGSLRLSCAASGSIFPWNAMGWYRQAPGKERELVAAISFSSGGSTYYADSVKGRFTISRDNAKNTVYLQMNSLKPEDPAVYYCAARTKLWVLGNYYYWGQGTQVTVSS,high polyreactivity
21,QVQLVESGGGLVQAGGSLRLSCAASGSIFPWYTMGWYRQAPGKEREFVAAISWSGGSTYYADSVKGRFTISRDNAKNTDYLQMNSLKPEETAVYYCAASRRPWYRAVTWNAGDYWGQGTQVTVSS,high polyreactivity
